{
  "source": "paper PMC4414246",
  "assay_in_all_cases": "fluorescence polarization",
  "key": {"[1]": {"target": "dK50dM51 E19N (UniProt P09012 10-89, E19N;del50-51)"}, "[2]": {"target": "U1A M51K (UniProt P09012 10-89, M51K)"}, "[3]": {"target": "U1A E19F:N15V (UniProt P09012 10-89, N15V;E19F)"}, "[4]": {"target": "dK50dM51 E19S (UniProt P09012 10-89, E19S;del50-51)"}, "[5]": {"target": "U1A M51A:E19A (UniProt P09012 10-89, E19A;M51A)"}, "[6]": {"target": "U1A M51S (UniProt P09012 10-89, M51S)"}, "[7]": {"target": "dK50dM51 (UniProt P09012 10-89, del50-51)"}, "[8]": {"target": "U1A M51F (UniProt P09012 10-89, M51F)"}, "[9]": {"target": "U1A E19S:N15V (UniProt P09012 10-89, N15V;E19S)"}, "[10]": {"target": "U1A (UniProt P09012 10-89)"}, "[11]": {"target": "U1A E19N (UniProt P09012 10-89, E19N)"}, "[12]": {"target": "U1A M51A (UniProt P09012 10-89, M51A)"}, "[13]": {"target": "U1A L49F (UniProt P09012 10-89, L49F)"}, "[14]": {"target": "U1A L49A (UniProt P09012 10-89, L49A)"}, "[15]": {"target": "U1A N16A (UniProt P09012 10-89, N16A)"}, "[16]": {"target": "U1A M51A:N15V (UniProt P09012 10-89, N15V;M51A)"}, "[17]": {"target": "U1A K50A (UniProt P09012 10-89, K50A)"}, "[18]": {"target": "U1A E19F:Y13Q (UniProt P09012 10-89, Y13Q;E19F)"}, "[19]": {"target": "dK50dM51 S46A (UniProt P09012 10-89, S46A;del50-51)"}, "[20]": {"target": "U1A E19F (UniProt P09012 10-89, E19F)"}, "[21]": {"target": "U1A E19A:Y13Q (UniProt P09012 10-89, Y13Q;E19A)"}, "[22]": {"target": "U1A E19A:F56A (UniProt P09012 10-89, E19A;F56A)"}, "[23]": {"target": "U1A E19K (UniProt P09012 10-89, E19K)"}, "[24]": {"target": "U1A L49K (UniProt P09012 10-89, L49K)"}},
  "data": [
    {"binder": "GGCAGAUCUGAGCCUGGGAGCUCUCUGCC (structured_RNA)", "note": "[TAR RNA]", "values": [
      {"measurement": "Kd", "setting": "[1]", "value": "27.8 ± 3.2", "unit": "µM"},
      {"measurement": "Kd", "setting": "[2]", "value": "7.7 ± 0.5", "unit": "µM"},
      {"measurement": "Kd", "setting": "[3]", "value": "19 ± 2.5", "unit": "µM"},
      {"measurement": "Kd", "setting": "[4]", "value": "7 ± 1.9", "unit": "µM"},
      {"measurement": "Kd", "setting": "[5]", "value": "14.9 ± 2.5", "unit": "µM"},
      {"measurement": "Kd", "setting": "[6]", "value": "29.9 ± 5.7", "unit": "µM"},
      {"measurement": "Kd", "setting": "[7]", "value": "15.9 ± 2.3", "unit": "µM"},
      {"measurement": "Kd", "setting": "[8]", "value": "16.4 ± 2.3", "unit": "µM"},
      {"measurement": "Kd", "setting": "[9]", "value": "11.3 ± 0.8", "unit": "µM"},
      {"measurement": "Kd", "setting": "[10]", "value": "19.1 ± 4.9", "unit": "µM"},
      {"measurement": "Kd", "setting": "[11]", "value": "12 ± 0.9", "unit": "µM"},
      {"measurement": "Kd", "setting": "[12]", "value": "4.9 ± 0.6", "unit": "µM"},
      {"measurement": "Kd", "setting": "[13]", "value": "24.1 ± 4.3", "unit": "µM"},
      {"measurement": "Kd", "setting": "[14]", "value": "5.2 ± 0.5", "unit": "µM"},
      {"measurement": "Kd", "setting": "[15]", "value": "8.8 ± 1.4", "unit": "µM"},
      {"measurement": "Kd", "setting": "[16]", "value": "46 ± 13.4", "unit": "µM"},
      {"measurement": "Kd", "setting": "[17]", "value": "39.6 ± 12.2", "unit": "µM"},
      {"measurement": "Kd", "setting": "[18]", "value": "58 ± 24.1", "unit": "µM"},
      {"measurement": "Kd", "setting": "[19]", "value": "24.5 ± 6", "unit": "µM"},
      {"measurement": "Kd", "setting": "[20]", "value": "6.2 ± 0.8", "unit": "µM"},
      {"measurement": "Kd", "setting": "[21]", "value": "21.7 ± 5.3", "unit": "µM"},
      {"measurement": "Kd", "setting": "[22]", "value": "29.2 ± 6.3", "unit": "µM"},
      {"measurement": "Kd", "setting": "[23]", "value": "5.9 ± 0.4", "unit": "µM"},
      {"measurement": "Kd", "setting": "[24]", "value": "3.9 ± 0.4", "unit": "µM"}
    ]}
  ]
}
